Measured values taken from PMC8017925, “Structural basis for differential recognition of phosphohistidine-containing peptides by 1-pHis and 3-pHis monoclonal antibodies” (Proceedings of the National Academy of Sciences of the …, 2021).

T1: ACLY peptide, 3-pHis form
T1 sequence (peptide, biotin on the N-terminus; C-terminal amide; 3-phosphohistidine at position 5): VQFGHAGAC

T2: NM23 peptide, 3-pHis form
T2 sequence (peptide, biotin on the N-terminus; C-terminal amide; 3-phosphohistidine at position 5): RNIIHGSDS

T3: Common-His peptide, 3-pHis form
T3 sequence (peptide, biotin on the N-terminus; C-terminal amide; 3-phosphohistidine at position 5): GEQLHDLNA

T4: ACLYana-3-pHis peptide (AGAG-3-pHis-AGAG)
T4 sequence (peptide, 3-phosphohistidine at position 5; biotin on the N-terminus): AGAGHAGAG

T5: ACLYana-1-pHis peptide (AGAG-1-pHis-AGAG)
T5 sequence (peptide, 1-phosphohistidine at position 5; biotin on the N-terminus): AGAGHAGAG


Columns and labels:
[1] = biological target: T1, ACLY peptide, 3-pHis form; assay: BLI; biotinylated pHis peptides (20 nM) on streptavidin biosensors, Fab in solution at varying concentrations; 50 mM Hepes pH 8.0, 150 mM NaCl, 0.05% Tween-20, 0.2% BSA; Octet RED96e; global fit to a 1:1 Langmuir model
[2] = biological target: T2, NM23 peptide, 3-pHis form; assay: as above
[3] = biological target: T3, Common-His peptide, 3-pHis form; assay: as above
[4] = substrate: SCS peptide, 3-pHis form; assay: as above
[5] = biological target: ACLYana-3-pTza peptide (AGAG-3-pTza-AGAG); assay: BLI; N-terminally biotinylated peptides (20 nM) on streptavidin biosensors, varying concentrations of Fab in solution; 50 mM Hepes pH 8.0, 150 mM NaCl, 0.05% Tween-20, 0.2% BSA; association 120 s, dissociation 200 s; global fit to a 1:1 Langmuir model; Octet RED96e; in triplicate
[6] = biological target: T4, ACLYana-3-pHis peptide (AGAG-3-pHis-AGAG); assay: as above
[7] = tested on: ACLYana-3-pHis peptide (AGAG-3-pHis-AGAG); assay: BLI binding kinetics of 3-pHis Fabs with affinity-purified pHis peptide; settings: for ka / kd / Kd: BLI, 1:1 Langmuir global fit, triplicate; for ka / kd: affinity-purified ACLYana-3-pHis peptide; for Kd: ACLYana phosphorylated with phosphoramidate (8 h, 23 °C), 3-pHis isomer affinity-purified on 3-pHis IgG column, immobilized on streptavidin biosensors, Hepes pH 8.0; for affinity for 3-pHis peptides, times (fold) weaker than for the 3-pTza peptide: ratio of BLI KD, 3-pHis versus 3-pTza peptide
Experimental: (§1) Biolayer interferometry (BLI) studies were performed to determine the relative affinity of pHis Fabs to in situ phosphorylated His peptides versus the phosphomimetic substrates. The N-terminally biotinylated peptides were immobilized on streptavidin biosensors and the rate of association (ka) and dissociation (kd) were determined by varying the pHis Fab concentration. Equilibrium dissociation constants (KD) were determined by fitting the experimental data to a 1:1 Langmuir binding model. ACLYana-1-pTza and ACLYana-3-pTza peptides were used to determine affinity to 1-pHis and 3-pHis Fabs, respectively (Fig. 3 A–E and Table 1). […] The two isomers were separated from each other by passing the reaction through affinity columns containing 1-pHis mAbs using SC1-1 or SC50-3 IgGs or 3-pHis mAbs using SC39-4, SC44-8, and SC56-2 IgGs. The eluates thus contained either predominantly 1-pHis or 3-pHis peptides. These peptides were used to determine the affinity to their respective isomer class of pHis Fabs (Fig. 3 F–J, Table 1, and SI Appendix, Fig. S5). […] This experimental observation is well supported by the higher number of hydrogen bonds that support the SC44-8:3-pTza interaction compared to other pHis Fabs (SI Appendix, Table S5). […] There are at least three reasons for the lower affinity of the mAbs for pHis peptides compared to pTza peptides: The continuous hydrolysis of phosphate from the pHis peptides during the course of the experiment (SI Appendix, Fig. S6), a reduction in the number of hydrogen bond interactions due to one less nitrogen in the imidazole ring compared to triazolyl ring (Fig. 4 and SI Appendix, Fig. S8), and inherently different electronic properties of the imidazole and triazolyl rings in His and Tza, respectively ([20]).
(§2) Fig. 3. Binding kinetics of pHis Fabs with cognate pTza and pHis peptides. BLI studies of immobilized peptides (ACLYana-1/3-pTza and phosphorylated ACLYana) with varying concentrations of the pHis Fabs were carried out in triplicate on an Octet Red96e instrument (FortéBio). SC1-1 (A) and SC50-3 (B) pHis Fab interaction with their ACLYana-1-pTza peptides. SC39-4 (C), SC44-8 (D), and SC56-2 (E) pHis Fabs interactions with ACLYana-3-pTza peptides. SC1-1 (F), SC50-3 (G), SC39-4 (H), SC44-8 (I), and SC56-2 (J) pHis Fabs interactions with their affinity-purified ACLYana-pHis peptides are represented, Right. The experimental data are represented in the black dashed lines and the nonlinear least-squares fitting was represented in the red continuous lines. The χ^2 for the goodness of fit is under 1.0 for the all the plots.
The binding kinetics of pHis Fabs with the peptides (pTza and pHis) were evaluated with an Octet RED96e (FortéBio). Streptavidin-coated biosensors (FortéBio) were presoaked in buffer containing 50 mM Hepes pH 8.0, 150 mM NaCl, 0.05% Tween-20, and 0.2% BSA for 15 min. The biotinylated pTza peptides or pHis peptides (20 nM) with and without phosphoramidate treatment were coated onto these streptavidin biosensors and analyzed for their binding to varying concentrations of the pHis Fabs with an association time of 120 s and dissociation time of 200 s. The entire set of experiments was repeated three times. The data were analyzed using the Octet software (FortéBio) and the rates of association and dissociation were obtained by global fitting data to the 1:1 Langmuir interaction model. […]
Peptides used in the DSF and BLI experiments were synthesized by the Salk Peptide Synthesis Core. These peptides were N-terminally biotinylated and C-terminally amidated. They were synthesized using standard Fmoc chemistry on a Gyros Protein Technologies Tribute peptide synthesizer with UV monitoring. Following the deprotection, peptides were analyzed by mass spectrometry and analytical HPLC by the Proteomics Core at Salk. The peptides were HPLC purified to 99% purity by 21st Century Biochemicals, Inc. The Fmoc-pTza’s were synthesized at 10 g scale for incorporation into the peptides. […]

[8] = biological target: ACLYana-3-pTza peptide (AGAG-3-pTza-AGAG); assay: BLI binding kinetics of 3-pHis Fabs with cognate pTza peptide; settings: triplicate; for Kd: BLI Octet RED96e, N-terminally biotinylated peptide (20 nM) on streptavidin biosensors, varying Fab concentration, 50 mM Hepes pH 8.0, 150 mM NaCl, 0.05% Tween-20, 0.2% BSA, association 120 s, dissociation 200 s, global fit 1:1 Langmuir; for ka / kd: BLI, immobilized biotinylated ACLYana-3-pTza, 1:1 Langmuir global fit
Experimental: as §1, §2
The binding kinetics of pHis Fabs with the peptides (pTza and pHis) were evaluated with an Octet RED96e (FortéBio). Streptavidin-coated biosensors (FortéBio) were presoaked in buffer containing 50 mM Hepes pH 8.0, 150 mM NaCl, 0.05% Tween-20, and 0.2% BSA for 15 min. The biotinylated pTza peptides or pHis peptides (20 nM) with and without phosphoramidate treatment were coated onto these streptavidin biosensors and analyzed for their binding to varying concentrations of the pHis Fabs with an association time of 120 s and dissociation time of 200 s. The entire set of experiments was repeated three times. The data were analyzed using the Octet software (FortéBio) and the rates of association and dissociation were obtained by global fitting data to the 1:1 Langmuir interaction model.

[9] = biological target: T5, ACLYana-1-pHis peptide (AGAG-1-pHis-AGAG); assay: BLI; N-terminally biotinylated peptides (20 nM) on streptavidin biosensors, varying concentrations of Fab in solution; 50 mM Hepes pH 8.0, 150 mM NaCl, 0.05% Tween-20, 0.2% BSA; association 120 s, dissociation 200 s; global fit to a 1:1 Langmuir model; Octet RED96e; in triplicate
[10] = biological target: ACLYana-1-pTza peptide (AGAG-1-pTza-AGAG); assay: as above

Kd [1]	koff [1]	kon [1]	Kd [2]	koff [2]	kon [2]	Kd [3]	koff [3]	kon [3]	Kd [4]	koff [4]	kon [4]	Kd [5]	koff [5]	kon [5]	Kd [6]	koff [6]	kon [6]	ka [7]	kd [7]	Molecule	also measured
1420 nM	0.0243 s⁻¹	72200 M⁻¹ s⁻¹	2350 nM	0.073 s⁻¹	51400 M⁻¹ s⁻¹	3290 nM	0.0454 s⁻¹	13800 M⁻¹ s⁻¹	2320 nM	0.0521 s⁻¹	22400 M⁻¹ s⁻¹	67 nM	0.011 s⁻¹	164000 M⁻¹ s⁻¹	799 nM	0.117 s⁻¹	147000 M⁻¹ s⁻¹			SC39-4 Fab (Fab, V domains shown) VH: QSVEESGGRLVTPGGSLTLTCTVSGFSLSRYNMGWVRQAPGKGLEWIGWIPFRGSLKYATWATGRFTISRTSTTVDLRMTGLTAADTATYFCVRSSDGFDLWGPGTLVTISS VL: DMTQTPASVEAVVGGTVTIKCQASRDTGDGLIWYQQKPGQPPKRLIYKASTVASGVPSRFKGRGSGTDFTLTISDLECADAATYYCHSNFYNRWTYGNAFGGGTEVVVK	
																		147000 ± 5780 M⁻¹ s⁻¹	0.117 ± 0.0016 s⁻¹	SC39-4: Fab of rabbit 3-pHis-specific monoclonal antibody (antibody, V domains shown) VH: QSVEESGGRLVTPGGSLTLTCTVSGFSLSRYNMGWVRQAPGKGLEWIGWIPFRGSLKYATWATGRFTISRTSTTVDLRMTGLTAADTATYFCVRSSDGFDLWGPGTLVTISS VL: DMTQTPASVEAVVGGTVTIKCQASRDTGDGLIWYQQKPGQPPKRLIYKASTVASGVPSRFKGRGSGTDFTLTISDLECADAATYYCHSNFYNRWTYGNAFGGGTEVVVK	Kd [7]: 799 nM; affinity for 3-pHis peptides, times (fold) weaker than for the 3-pTza peptide [7]: 10 to 25 times; Kd [8]: 67 nM; ka [8]: 164000 ± 1060 M⁻¹ s⁻¹; kd [8]: 0.011 ± 1.6e-05 s⁻¹
3010 nM	0.15 s⁻¹	50100 M⁻¹ s⁻¹	5700 nM	0.126 s⁻¹	22200 M⁻¹ s⁻¹	3600 nM	0.127 s⁻¹	35600 M⁻¹ s⁻¹	6200 nM	0.136 s⁻¹	22000 M⁻¹ s⁻¹	96.6 nM	0.00939 s⁻¹	97300 M⁻¹ s⁻¹	2420 nM	0.183 s⁻¹	75600 M⁻¹ s⁻¹			SC56-2 Fab (Fab, V domains shown) VH: QSVEESEGGLIKPGGILTLTCTASGFSLSSYGFSWVRQAPGKGLEHIGYLHANGRAYYATWAKSRSTITRNTNLNTVTLQLTSLTAADTATYFCAKIGSVSDVAIWGPGTLVTISS VL: DMTQTPSSTSAAVGGTVTINCQSSESIYNNKNLAWYQQKPGQSPRRLIYSISTLASGVSSRFKGSGSGTQFTLTISDVQCDDAATYYCVGYYYSGGYYYSGSAAYYAFGGGTEVVVK	
																		75600 ± 2170 M⁻¹ s⁻¹	0.183 ± 0.00181 s⁻¹	SC56-2: Fab of rabbit 3-pHis-specific monoclonal antibody (antibody, V domains shown) VH: QSVEESEGGLIKPGGILTLTCTASGFSLSSYGFSWVRQAPGKGLEHIGYLHANGRAYYATWAKSRSTITRNTNLNTVTLQLTSLTAADTATYFCAKIGSVSDVAIWGPGTLVTISS VL: DMTQTPSSTSAAVGGTVTINCQSSESIYNNKNLAWYQQKPGQSPRRLIYSISTLASGVSSRFKGSGSGTQFTLTISDVQCDDAATYYCVGYYYSGGYYYSGSAAYYAFGGGTEVVVK	Kd [7]: 2420 nM; affinity for 3-pHis peptides, times (fold) weaker than for the 3-pTza peptide [7]: 10 to 25 times; Kd [8]: 96.6 nM; ka [8]: 97300 ± 1110 M⁻¹ s⁻¹; kd [8]: 0.00939 ± 1.78e-05 s⁻¹
																				SC1-1 Fab (Fab, V domains shown) VH: QSVEESEGGLFKPTDTLTLTCTASGFSLSGHGVIWVRQAPGKGLEWIGSAGAYGRIYYASWAKSRSTITRNTNLNTVTLKMTSLTAADTATYFCARRSDVGTSVGFDSWGPGTLVTISS VL: DMTQTPSSKSVPVGDTVTINCQASESVYSNNRLSWFQQKPGQPPKLLIYLVSTLASGVPSRFKGSGSGTQFTLTISDVVCDDAATYYCVGYKSSTTDGLAFGGGTEVVVK	Kd [9]: 95.1 nM; koff [9]: 0.00925 s⁻¹; kon [9]: 97300 M⁻¹ s⁻¹; Kd [10]: 24.8 nM; koff [10]: 0.00199 s⁻¹; kon [10]: 81300 M⁻¹ s⁻¹
